The target of the test is TNF-alpha. Put plainly: cell-based or functional assay.

In turn, Etanercept (Fc fusion) registered a N-terminal L929 Assay (EC50, pM) of 1.5 pM.

(Values after patent publication US20140219913A1.)
